Test results published in the nanobody polyreactivity screen of Harvey et al. (2022).

Test: yeast display, Sf9 membrane polyspecificity reagent, FACS + sequencing; frameworks hold sequencing errors
Outline: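 Nanobodies came from a synthetic yeast display library in Saccharomyces cerevisiae BJ5465, induced with galactose for 36–48 hours and stained for 1 hour at 4 °C with 10% biotinylated, detergent-solubilized Sf9 membrane reagent. Cells were enriched on streptavidin microbeads and then FACS-sorted, with low and high (top ~1%) gates set on anti-HA fluorescence for expression and streptavidin fluorescence for reagent binding. Each polyreactivity label reflects the gate a clone came from. Genes were amplified by colony PCR, sequenced by MiSeq 2 × 250 and filtered by CDR length.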

Row | Sequence | polyreactivity (PSR sort gate)
1 | QVQLVESGGGLVQAGGRLSLSCAASGSTFSPYAMGWYRQAPGKEREFVADISWPGGTTYYADSVKGRFTISRDNAKNTVYLQMNSLKPEDTAVYYCAVTYWDYTFQITYEYWGQGTQVTVSS | low polyreactivity
2 | QVQLVESGGGLVQAGGRRRLSCAASGSTLRDYVMGWYRQAPGKERELVAAITGRVDDTYYADSVKGRFTISRDNAKNTVYLQMNSLKPEDTAGYYCAADYSVTLRIGGFYWFYAFDYWGQGSQVTVSS | low polyreactivity
3 | QVQLVESGGGLVQAGGRSCAASGSTFRPYAMGWYRQAPGKEREFVAAISWRGGRTYYADSVKGRFTISRDNAKNTVYLQMNSLKPEDTAVYYCAVDPSIYRLSAYYYDYWGQGTQVTVSS | low polyreactivity
4 | QVQLVESGGGLVQAGGSFRLSCAASGRIFSPNAMGWYRQAPGKEREFVAAITWRAGTTYYADSVKGRFTISRDNAKNTVYLLMNSLKPEDTAVYYCAAGRRLGYGYWGQGTQVTVSS | high polyreactivity
5 | QVQLVESGGGLVQAGGSFRLSCAASGSIFDGYAMGWYRQAPGKERELVAAISSGGDSTYYADSVKGRFTISRDNAKNTVYLQMNSLKPEDTAVYYCNADSLVGHSYDYWGQGTQVTVSS | low polyreactivity
6 | QVQLVESGGGLVQAGGSFRLSCAASGSIFVVYAMGWYRQAPGKERELVAAITSGGSTYYADSVKGRFTISRDNAKNTVYLQMNSLKPEDTAVYYCNAKRTGPWFLHVPVYYWGQGTQVTVSS | low polyreactivity
7 | QVQLVESGGGLVQAGGSHRISCAASGSTFPGYPMGWYRQAPGKERELVAAGGSTYYADSVKGRFTISRDNAKNTVYLQINSLKPEDTAVYYCAATWGSVQKGTYYYWGQGTQVTVSS | low polyreactivity
8 | QVQLVESGGGLVQAGGSHRLSCAASGFIFYVYAMGWYRQAPGKERELVATINGRRSRTYYADSVKGRFTISRDNAKNTVYLQMNSLKPEDTAVYYCAAVAWVLRYGRGDYWGQGTQVTVSL | high polyreactivity
9 | QVQLVESGGGLVQAGGSHRLSCAASGFTFDFYAMGWYRQAPGKERELVAAISKNDGTTYYADSVKGRFTISRDNAKNTVYLLLNRLKPEDSAVYYCAAESGYPVYTYVSSGDYWGQGTQVTGSS | low polyreactivity
10 | QVQLVESGGGLVQAGGSHRLSCAASGFTFGYYVMGWYRQAPGKERELVAAISKRGSSTYYADCVKGRFTISRDNANTTVYLQMNSLKPVDTAVYYCAADGVYSHKDGHWGQGTQVTVSS | high polyreactivity
11 | QVQLVESGGGLVQAGGSHRLSCAASGFTFRRNAMGWYRQAPGKERELVAAISWSGGSTYYADSVKGRFTISRDNAKNTVYLQMNSLKPEDTAVYYCAAYDYRHLEDKYDYWGQGTQVTVSS | high polyreactivity
12 | QVQLVESGGGLVQAGGSHRLSCAASGFTFSAYTMGWYRQAPGKERELVAAISWRGTSTYYADSVKGRFTISRDNAKNTVYLQMNSLKPEDTAVYYCAVRWPSARIPVKLDYWGQGTQVNVSS | high polyreactivity
13 | QVQLVESGGGLVQAGGSHRLSCAASGFTLRYYSMGRNRPATGKERELVAPISFRGVRTYYADSVKGRFTISRDNAKNTVYLQMNSLKPEDTAVYYCAAASRRGVLYPSLPVLPDDYWGQGTQVTVSS | high polyreactivity
14 | QVQLVESGGGLVQAGGSHRLSCAASGGILETNAMGWYRQAPGKERELVAAIDFSAGSTYYADSVKGRFTISRDNAKNTVYLQMNSLKPEDTAVYYCAAESQGPKDDYLWGWHIYYYWGQGSQVTVSS | low polyreactivity
15 | QVQLVESGGGLVQAGGSHRLSCAASGGTFNSNAMGWYRQAPGKERELVASITWRGGTYYADSVKGRFTISRDNAKNTVYLQMNSLKPEDTAVYYCAARGTIPGIHWIYYYWGQGTQVTVSS | high polyreactivity
16 | QVQLVESGGGLVQAGGSHRLSCAASGIIFWYNAMGWYRQAPGKERELVAAISRGGGNTYADSVKGRFTISRDNAKNTVYLQMKSLKPEDTAVYYCAAKRSGYRFNTRWFRLPKYDYWGQGTQVTVSS | low polyreactivity
17 | QVQLVESGGGLVQAGGSHRLSCAASGIIFYDNTMGWYRQAPGKERELVASITWRGGSTYYADSVKGRFTISRDNAKNTFYLQMNSLKPEDTAVYYCNADSSDDYDYWGQGTQVTVSS | low polyreactivity
18 | QVQLVESGGGLVQAGGSHRLSCAASGIIFYRNAMGWYRQAPGKEREFVAAISSSGTNTYYADSVKGRFTISRDNAKITVYLQMNSLKPEDTAVYYCNADPDDGYFSDFDYWGQGTQVTVSS | low polyreactivity
19 | QVQLVESGGGLVQAGGSHRLSCAASGIIIRYYAMGWYRQAPGKERDLVAAISGGGSTYYADSVKGRFTISRDNAKNTVYLQMNRLKPEDTAVYYCAAAGRWYYHGYNYWGQGTQVTVSS | high polyreactivity
20 | QVQLVESGGGLVQAGGSHRLSCAASGITFAFNTMGWYRQAPGKERELVAAISYSGGRTYYADSVKGRFTISRDNAKNTVYLQMNSLKPEDTAVYYCNTRYRGSYDYWGQATQVTVSS | high polyreactivity
21 | QVQLVESGGGLVQAGGSHRLSCAASGITFGSYVMGWYRQAPGKERELVAAISRSGGRTYYADSVKGRFTISRDNAKNTVYLQMNSLKPEDTAVYYCAARYDSGNYVYWGQGTQLTVSS | high polyreactivity
22 | QVQLVESGGGLVQAGGSHRLSCAASGITFSTYAKGGYRQAPGKERELVAAITKSGGSTYYADSVKGRFTISRDTAKNTVYLQMNSLKPEDTAVYYCAAEGDWRGSALYNYWGLGTQVTVSS | low polyreactivity
23 | QVQLVESGGGLVQAGGSHRLSCAASGLILGINAKGWYRQAPGTERELVAAISSSGGRTSYADSVKGRFTISRDNGKNTVYLQMNSLNPEDTAVYYCAKRRTTYSHYDYWGHGTQVTVSS | low polyreactivity
24 | QVQLVESGGGLVQAGGSHRLSCAASGLTFSKYAMGWYRQAPGKERELVAAIRRSGGSTYYADSVKGRFTISRDNAKNTVYLQMNSLKPEDTAVYYCAADNYRYWNILRDYWGQGTQVTVSS | low polyreactivity
25 | QVQLVESGGGLVQAGGSHRLSCAASGRIFKINAMGCYRQAPVKERELVAGISGSGSDTYYADSVKGRFTISRDNSKNTVYLQMNSLKPEDTAVYYCAATVVQYYDRDYWGQGTQVTVSS | low polyreactivity
26 | QVQLVESGGGLVQAGGSHRLSCAASGRIFVIYAMGWNRQAPGKERELVALITRGSSTYADSVKGRFTISRDNAKNTVYLQMYSLKPEDTAVYYCAARRYVTVDYDYWGQGTQVTVSS | high polyreactivity
27 | QVQLVESGGGLVQAGGSHRLSCAASGRILPGYAMGWYRPAPGKERELVAAITTGGSTYYADSVKGRFTISRDNAKNTVYLQMNSLKPEDTAVYYCAKLYSYVGWGGQFDYWGQGTQVTVSS | low polyreactivity
28 | QVQLVESGGGLVQAGGSHRLSCAASGRILYRNVMGWYRQAHGKERELVAGISFTGGSTYYADSVKRRFTISRDNAKNTVYLQMNSLKPEDTAVYYCAATYSSYWARYYYWGQGTPVTVSS | high polyreactivity
29 | QVQLVESGGGLVQAGGSHRLSCAASGRTFANYAMGWYRQAPGKERELVAAITSGGRTYYADSVKGRFTISRDNAKNTVYLQMNSLKPEDSAVYYCAADYTYDYQNDYWGQGTQVTVSS | high polyreactivity
30 | QVQLVESGGGLVQAGGSHRLSCAASGSIFHRYAMGWYRQAPGKERELVAGITWSGDSTYYADSVKGRFTISRDNAKNTVYLEMNSLKPEDTGVYYCAKRAPRHYKGVPAAWFGYWGQGTQVTVSS | low polyreactivity
